# Laboratory results as given in patent US20150337051A1 (MORPHOTEK, published 2015).
# Residue numbers refer to the chain shown, from its start.
# T1: TEM-1 in a native state on aortic smooth muscle cells (AoSMC) (UniProt Q9HCU0 18-757, limits assumed)
# T1 construct: whole, on cells; also called tumor endothelial marker 1; endosialin
# T1 sequence (looked up): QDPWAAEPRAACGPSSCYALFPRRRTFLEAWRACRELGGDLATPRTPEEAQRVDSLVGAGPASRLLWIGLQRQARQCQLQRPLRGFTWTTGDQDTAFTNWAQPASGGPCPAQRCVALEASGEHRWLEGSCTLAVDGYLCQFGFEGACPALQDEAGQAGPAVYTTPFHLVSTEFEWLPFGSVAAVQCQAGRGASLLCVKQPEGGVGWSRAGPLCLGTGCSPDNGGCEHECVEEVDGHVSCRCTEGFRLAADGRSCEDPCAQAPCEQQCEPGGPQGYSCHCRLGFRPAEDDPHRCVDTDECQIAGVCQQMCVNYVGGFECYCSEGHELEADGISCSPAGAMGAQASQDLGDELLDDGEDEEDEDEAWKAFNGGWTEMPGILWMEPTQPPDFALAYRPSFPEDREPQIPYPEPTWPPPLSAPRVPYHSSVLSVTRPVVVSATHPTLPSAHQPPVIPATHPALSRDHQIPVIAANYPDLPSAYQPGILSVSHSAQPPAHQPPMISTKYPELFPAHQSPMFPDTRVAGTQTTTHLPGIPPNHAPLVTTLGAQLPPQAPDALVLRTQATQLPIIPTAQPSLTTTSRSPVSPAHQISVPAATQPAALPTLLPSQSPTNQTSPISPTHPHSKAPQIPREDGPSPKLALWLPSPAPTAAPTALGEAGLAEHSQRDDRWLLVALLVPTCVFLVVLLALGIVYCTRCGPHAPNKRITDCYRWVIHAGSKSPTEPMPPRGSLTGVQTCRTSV
# T2: Biotinylated TEM1-Fc (murine, UniProt Q9HCU0 18-687 (human entry), limits assumed, biotinylated (sites not given))
# T2 construct: Ligand captured on the streptavidin sensor surface in the Biacore analysis; also called rTEM-1-Fc; not shown: Fc portion of a murine gamma heavy chain
# T2 sequence (looked up): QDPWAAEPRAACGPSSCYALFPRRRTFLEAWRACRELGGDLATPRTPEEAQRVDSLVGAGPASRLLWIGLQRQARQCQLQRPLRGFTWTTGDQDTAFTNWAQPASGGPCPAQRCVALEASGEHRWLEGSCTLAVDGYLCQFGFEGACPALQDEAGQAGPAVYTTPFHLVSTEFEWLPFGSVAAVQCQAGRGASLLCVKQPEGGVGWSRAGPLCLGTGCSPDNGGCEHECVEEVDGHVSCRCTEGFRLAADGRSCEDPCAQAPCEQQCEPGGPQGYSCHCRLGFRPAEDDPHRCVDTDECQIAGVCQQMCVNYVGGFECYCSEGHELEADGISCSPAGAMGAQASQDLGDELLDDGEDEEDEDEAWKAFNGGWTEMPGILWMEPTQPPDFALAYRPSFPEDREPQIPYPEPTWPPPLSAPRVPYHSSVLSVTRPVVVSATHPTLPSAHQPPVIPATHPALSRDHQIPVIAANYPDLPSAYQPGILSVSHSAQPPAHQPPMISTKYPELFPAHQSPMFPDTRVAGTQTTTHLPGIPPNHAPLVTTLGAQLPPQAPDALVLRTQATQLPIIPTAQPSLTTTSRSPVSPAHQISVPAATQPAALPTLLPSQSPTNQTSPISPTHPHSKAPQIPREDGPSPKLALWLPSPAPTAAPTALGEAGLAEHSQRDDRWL
# B1: Antibody 9G5 (antibody, V domains shown)
# VH: EVKLEESGGGLVQPGMSVKLSCATSGFTFSDYWMEWVRQAPGKGLEWVAEIRNKLNNYVTNYGKPVRGRFTISRDDSKSIVYLQVNSIRSEDTGIYYCTRIQRVITTGEYFDYWGQGVMVTVSS
# VL: DIQMTQSPSLLSASEGDRVTLSCKASQNIYKYLNWYQQKLGEAPKLLIYNINNLQTGIPSRFSGSGSGTDFTLTISSLQPEDVATYYCYQYNSGRAFGGGTKLELK
# notes: Rat monoclonal antibody from hybridoma, IgG1/kappa; also called 9G5.F2.C1.F4; anti-TEM-1 clone 9G5
# B2: Antibody 15D10 (antibody, V domains shown)
# VH: QVQLMESGPGLVQPSETLSLTCTVSGFSLTNYNIHWVRQPPGKGLEWMGLMWSGGNTDYNSALKSRLTISRDTSKNQVFLKMNSLQSEDTTTYYCARDSGYGEGRLDYWGQGVMVTVSS
# VL: DIVLTQAPLSVSVTPGESASISCRSSKSLLGSKGINFLYWYLQKPGKSPQLLIYRMSNLASGVPDRFSGSGSETDFILKISKVETEDVGVYYCAQFLEYPNSFGAGTKLELK
# notes: Rat monoclonal antibody from hybridoma, IgG2a/kappa; also called 15D10.G4.C12; ATCC PTA-12543
# B3: Antibody 10H8 (antibody, V domains shown)
# VH: QVQLKESGPGLVQPSQTLSLTCTVSGFSLTNYNIHWVRQPPGKGLEWMGAIWSGGSADYDSALKSRLSISRDTSKSQVFLKMDNLQTEDTAIYYCTRDQLGGWYFDFWGPGTKVTVSS
# VL: DIVMTQTPSSQAVSAGEKVTMSCTSGQSLLYNENNKNYLAWYQLKPGQSPRLLIYWASTRESGVPDRFIGSGSGTYFTLTISSVQAEDLAVYYCQQYFRFPRTFGGGTKLELK
# notes: Rat monoclonal antibody from hybridoma, IgG2a/kappa; also called 10H8.D7.E3; ATCC PTA-12546
# B4: Antibody 14G3 (antibody, V domains shown)
# VH: EVQLVEFGGGLVQPGRSLKLSCAASGFTFSDYNLAWVRQAPKKGLEWVATISYNGSEIYYRDSVKGRFTISRDNAKNTLYLQMDSLRSEDTATYYCARHWREYYSSYSSYVMDAWGQGASVTVSS
# VL: DIVMTQTPSSQAVSAGAKVTLSCKSSQSLLYNKNKKNYLAWYQQKPGQSPKLLIYWASTRESGVPDRFIGSGSGTDFTLTISSVQAEDLAIYYCQQYYTFPTFGAGTKLELK
# notes: Rat monoclonal antibody from hybridoma, IgG2a/kappa; also called 14G3.H4.F11.H7; ATCC PTA-12539
# B5: Antibody 7H12 (antibody, V domains shown)
# VH: EVQLVESGGGLVQPGRSMILSCAASGFTFSNFDMAWVRQAPKMGLEWVATITYDGSRTNYRDSVKGRFTISRDSAKNTLYLQMDSLTSEDTATYYCARHGSSYYWFFDFWGPGTMVTVSS
# VL: ETVMTQSPTSMPTSIGERVTLNCKASQSVGINVDWYQQTPGQSPKLLIYTASNRHTGVPDRFAGSGSGRDFTLTISNVEAEDLVVYYCLQYGSLPFTFGAGTKLELK
# notes: Rat monoclonal antibody from hybridoma, IgG1/kappa; also called 7H12.H5.E7; ATCC PTA-12545
# B6: Antibody 15F8 (antibody, V domains shown)
# VH: EVQLVESGGGLVQPGRSMKLSCSASGFTFRNYYMAWVRQAPTRGLEWVASTGTGGDFTYYRDSVKGRFTISRDTAENTLYLQMDSLRSEDTATYYCARAYGYFDYWGQGVKVTVSS
# VL: DIVLTQSPTTLSVTPGETVSLSCRASHSVGTNLHWYQQKPNESPRLLIKYVSQSNSGIPSRFSASGSGTDFTLNIKNVEFNDVSSYFCQQTQSWPLTFGAGTKLEIK
# notes: Rat monoclonal antibody from hybridoma, IgG2a/kappa; also called 15F8.G6.B4; ATCC PTA-12540
# B7: Antibody 16D2 (antibody, V domains shown)
# VH: B6 VH with T28I, R43K, N77S, R87K
# VL: B6 VL with P40T, N77D, N81D, A100S
# notes: Rat monoclonal antibody from hybridoma, IgG2a/kappa; also called 16D2.H12.E7.G9; ATCC PTA-12544
# B8: Antibody 9A5 (antibody, V domains shown)
# VH: B6 VH with S23A, T53S, K111R
# VL: B6 VL with P40T, Y50D, V51A, N55M, N81D, A100S
# notes: Rat monoclonal antibody from hybridoma, IgG2a/kappa; also called 9A5.G12.B10.F8.F6; ATCC PTA-12542
# B9: Antibody 7D3 (antibody, V domains shown)
# VH: EVQLVESGGGLVQPKGSLKLSCAASGFDFKTYAMSWVRQAPGKGLDWIVTISTKGHNYATLYADSVKERFTISRDDSQSMVYLQMNNLKTEDTALYYCTVAGYNFDYWGQGVMVTVSS
# VL: DVVLTQTPSILSATIGQSVSISCRSSQSLLDSDGNTYLYWFLQRPGQSPQRLIYLVSNLGSGVPNRFSGSGSGTDFTLKISGVEAGDLGVYYCMQATHAPFTFGSGTKLEIK
# notes: Rat monoclonal antibody from hybridoma, IgG2a/kappa; also called 7D3.F5.E8.D8; ATCC PTA-12538
# B10: Antibody 11D1 (antibody, V domains shown)
# VH: EVQLVESDGGLVQPGRSLKLSCAASGFSFSDYYMAWVRQAPTKGLEWVATISYDGSGSYYRDSVKGRFTVSRDNAKTTLYLQMDSLRSEDTATYYCARGGGLDYWGQGVMVTVSS
# VL: DNVLTQAPLAVSVTPGESASISCRSSKSLLSIEGINSLYWYLQKPGKSPQLLLFRMSNLASGVPDRFSGSGSETDFTLKISQVETEDVGVYYCAQFLEFPFTFGSGTKLEIK
# notes: Rat monoclonal antibody from hybridoma, IgG2a/kappa; also called 11D1.G10.F8; ATCC PTA-12541
# Molecular target: T1, TEM-1 in a native state on aortic …
# Assay: flow cytometry on AoSMC, 10 µg/mL antibody, FITC goat anti-rat secondary; cells only 2.5, secondary only 3.5
# Procedure: FACS analyses were also performed using aortic smooth muscle cells (AoSMC) and HUVEC cells. Cells were harvested using cell dissociation buffer (Invitrogen, #13151-014), washed twice in PBS and re-suspended at 50,000 cells/100 μL FACS buffer (PBS+2% FBS) in a round bottom 96 well plate. Cells were incubated for 1 hour on ice with the described rat TEM-1-specific antibodies at a concentration of 10 μg/mL, washed and then incubated with FITC-conjugated goat-anti-rat secondary antibodies (dilution 1:100) (Southern Biotech). Prior to analysis, cells were labeled with 7-AAD (BD Biosciences) to allow for the exclusion of nonviable cells. Cells were analyzed on an EasyCyte Flow Cytometer (Guava Technologies). The data in Table 6 indicate that all of the tested antibodies bind TEM-1 in a native state.
row,Geometric mean of resulting FACS plot,Binder
1,57.4,B1
2,86.4,B2
3,52.7,B3
4,94.2,B4
5,59.9,B5
6,72.5,B6
7,98,B7
8,89.9,B8
9,63.4,B9
10,46.3,B10

# Molecular target: T2, Biotinylated TEM1-Fc
# Assay: Biacore SPR, biotinylated TEM1-Fc on streptavidin surface, antibody as analyte, 1:1 model
# Procedure: Biacore analyses were also performed to determine the affinity of selected isolated TEM-1-specific rat antibodies. For these studies streptavidin-coated sensor surfaces were generated by injecting CAP reagent for 5 minutes at a flow rate of 2 μl/min. Biotinylated TEM1-Fc (10 μg/ml) was injected onto the streptavidin coated sensor surface for 20 sec (Fc2, RL=˜50 RU), 40 sec (Fc3, RL=˜100 RU), and 60 sec (Fc4, RL=˜150 RU) at a flow rate of 25 μl/minute. Rat anti-TEM-1 MAbs were injected for 300 seconds at 0.5 nM, 2 nM, 5 nM, 20 nM, and 50 nM concentrations and the dissociations were monitored for 30 minutes at a flow rate of 25 μl/minute. The sensor surface was regenerated by injecting a CAP kit regeneration solution for 120 sec at a flow rate of 25 μl/minute. The sensorgrams were analyzed using 1:1 binding model.
Kd [pM],koff [s⁻¹],kon [M⁻¹ s⁻¹],Binder
106,0.000105,993000,B2
0.0279,3.01e-08,1.08e+06,B5
0.222,1.65e-07,742000,B6
0.0131,1.07e-08,810000,B7
21.6,1.84e-05,850000,B8
2.03,1.34e-07,65900,B9
240,9.57e-05,400000,B10
